Assay results published in article PMC5349611.

Assays:
[1] = test system: IolR-His6 (Salmonella enterica serovar Typhimurium 14028); test: SPR (Interaction Map); settings: EMSA: 100 ng DNA in 1x Tris/borate/EDTA, 20 ul, 45 min, 12% native PAA gel run at 4 C, SPR: streptavidin chip, 30 ul/min, 25 C, 0-330 nM IolR, buffer not in …
[2] = test system: IolR-His6 (Salmonella enterica serovar Typhimurium 14028); test: SPR (OneToTwo); settings: EMSA: 100 ng DNA in 1x Tris/borate/EDTA, 20 ul, 45 min, 12% native PAA gel run at 4 C, SPR: streptavidin chip, 30 ul/min, 25 C, 0-330 nM IolR, buffer not in …
[3] = target: T1, IolR-His6 (Salmonella enterica serovar Typhimurium 14028) (UniProt Q8ZK65); test: SPR (OneToTwo); settings: EMSA: 100 ng DNA in 1x Tris/borate/EDTA, 20 ul, 45 min, 12% native PAA gel run at 4 C; SPR: streptavidin chip, 30 ul/min, 25 C, 0-330 nM IolR, buffer not in …
T1 sequence: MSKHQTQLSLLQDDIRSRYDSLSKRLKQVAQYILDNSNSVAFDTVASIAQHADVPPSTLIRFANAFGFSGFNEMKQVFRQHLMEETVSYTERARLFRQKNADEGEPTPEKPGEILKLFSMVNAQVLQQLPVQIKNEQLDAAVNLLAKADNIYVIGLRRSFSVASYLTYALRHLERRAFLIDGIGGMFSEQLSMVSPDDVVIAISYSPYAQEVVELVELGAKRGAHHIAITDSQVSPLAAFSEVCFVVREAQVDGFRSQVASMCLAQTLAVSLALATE

PiolT1 SPR fragment
Kd ([1]; high-affinity component, peak weight 40.5%, ka 6.95e5 M-1s-1, kd 5.78e-4 s-1): 0.81 nM | Kd ([1]; low-affinity component, peak weight 57.6%, ka 1.05e5 M-1s-1, kd 3.2e-2 s-1): 312 nM

PiolR SPR fragment
Kd ([2]; KD1, ka1 1.3e5 M-1s-1, kd1 5.5e-2 s-1): 425 nM | Kd ([2]; KD2, ka2 2.4e5 M-1s-1, kd2 1.4e-3 s-1): 6 nM

TTGCTCAGAACCCAGCCCGCCAGCAAATTCTGTACTGAAGGTAACCACAGCGCAATTTGAATGTTGTTAACTGTATGTTCAGTTCATTTGTGCTAATATGGTTATTTACGAAATTTTCGTTCTATTAGAGTATCATGCATGTCTAAACATCAAACTCAACTTTCCTTACTGCAGGATGATATCCGCAG (double strand) [PiolR SPR fragment]
Kd [3]: 425 nM

PreiD SPR fragment
Kd ([2]; KD1, ka1 1.5e5 M-1s-1, kd1 4.9e-2 s-1): 321 nM | Kd ([2]; KD2, ka2 2.1e5 M-1s-1, kd2 1.4e-3 s-1): 6.6 nM

GGTGTGTCATCAATGGTTGTCTGTTGTGACGAGGAAAGATTTGGAAAAAATTATGATCTATATAGCATTTTTGTTTCATTTGGTGTGGTATAAAAATTCAAATTTCAGGGGGGTTTCGGCACCACA (double strand) [PreiD SPR fragment]
Kd [3]: 321 nM
